Earlier results as cited in PMC6753016.
Where two headings read alike, the source gives them in different places.

Columns and labels:
[1] = biological target: Chymotrypsin (Bos taurus) (UniProt P00766)
Trypsin (Bos taurus) [2] = biological target: Trypsin (Bos taurus) (UniProt P00760)
Trypsin (Bos taurus) [3] = biological target: Trypsin (Bos taurus) (UniProt P00760); remark: listed apart in the source
[4] = biological target: Factor XIIa (Homo sapiens) (UniProt P00748)
[5] = biological target: Plasma kallikrein (Homo sapiens) (UniProt P03952)
Plasmin (Homo sapiens) [6] = biological target: Plasmin (Homo sapiens) (UniProt P00747)
[7] = biological target: Neutrophil elastase (Homo sapiens) (UniProt P08246)
Trypsin (Bos taurus) [8] = biological target: Trypsin (Bos taurus) (UniProt P00760); remark: listed apart in the source
[9] = biological target: Factor XIIa (Homo sapiens) (UniProt P00748); remark: listed apart in the source
[10] = biological target: Hageman factor (Homo sapiens) (UniProt P00748)
β-Trypsin (Bos taurus) = β-Trypsin (Bos taurus) (UniProt P00760)
Trypsin (Bos taurus) [11] = biological target: Trypsin (Bos taurus) (UniProt P00760); remark: listed apart in the source
Leukocyte elastase [12] = biological target: Leukocyte elastase (UniProt P08246)
[13] = biological target: Cathepsin G (Homo sapiens) (UniProt P08311)
[14] = biological target: Chymotrypsin (Bos taurus) (UniProt P00766); remark: listed apart in the source
[15] = biological target: Mast cell chymase (Homo sapiens) (UniProt P23946)
Duadenase (Bos taurus) = Duadenase (Bos taurus) (UniProt P80219)
Trypsin (Bos taurus) [16] = biological target: Trypsin (Bos taurus) (UniProt P00760); remark: listed apart in the source
Trypsin (Bos taurus) [17] = biological target: Trypsin (Bos taurus) (UniProt P00760); remark: listed apart in the source
Factor Xa (Homo sapiens) [18] = biological target: Factor Xa (Homo sapiens) (UniProt P00742)
[19] = biological target: Factor XIIa (Homo sapiens) (UniProt P00748); remark: listed apart in the source
[20] = biological target: Plasma kallikrein (Homo sapiens) (UniProt P03952); remark: listed apart in the source
Cathepsin H [21] = biological target: Cathepsin H (UniProt P09668)
Target sequence in this assay (P09668 116-335): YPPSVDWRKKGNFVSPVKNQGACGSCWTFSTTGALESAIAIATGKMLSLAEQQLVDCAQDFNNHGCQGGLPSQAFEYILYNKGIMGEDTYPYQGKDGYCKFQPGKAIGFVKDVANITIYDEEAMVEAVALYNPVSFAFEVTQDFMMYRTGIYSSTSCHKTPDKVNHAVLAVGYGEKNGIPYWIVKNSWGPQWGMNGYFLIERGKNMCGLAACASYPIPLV

Cathepsin H [22] = biological target: Cathepsin H (UniProt P09668); remark: listed apart in the source
[23] = biological target: Carboxypeptidase A (Bos taurus) (UniProt P00730)
[24] = biological target: Carboxypeptidase B (Sus scrofa) (UniProt P09955)
[25] = biological target: Kallikrein 4 (Homo sapiens) (UniProt Q9Y5K2)
[26] = biological target: Factor XIIa (Homo sapiens) (UniProt P00748); remark: listed apart in the source
[27] = biological target: Matriptase (Homo sapiens) (UniProt Q9Y5Y6)
[28] = biological target: β-tryptase (Homo sapiens) (UniProt Q15661)
Trypsin (Bos taurus) [29] = biological target: Trypsin (Bos taurus) (UniProt P00760); remark: listed apart in the source
Plasmin (Homo sapiens) [30] = biological target: Plasmin (Homo sapiens) (UniProt P00747); remark: listed apart in the source
Cathepsin L [31] = biological target: Cathepsin L (UniProt P07711)
Target sequence in this assay (P07711 292-333): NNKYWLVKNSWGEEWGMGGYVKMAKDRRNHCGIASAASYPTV

Cathepsin L [32] = biological target: Cathepsin L (UniProt P07711); remark: listed apart in the source
Target sequence in this assay (P07711 114-288, chain 1 of 2): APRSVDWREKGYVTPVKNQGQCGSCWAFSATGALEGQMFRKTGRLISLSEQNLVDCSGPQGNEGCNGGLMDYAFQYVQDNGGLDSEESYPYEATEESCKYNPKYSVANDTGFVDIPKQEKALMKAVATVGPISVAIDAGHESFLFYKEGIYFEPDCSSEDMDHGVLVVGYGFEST
Target sequence in this assay (P07711 292-333, chain 2 of 2): as the sequence (P07711 292-333) above

Dipeptidyl peptidase I = Dipeptidyl peptidase I (UniProt P53634)
[33] = biological target: Clostripain (Hathewaya histolytica) (UniProt P09870)
Cathepsin B [34] = biological target: Cathepsin B (UniProt P07858)
Cathepsin B [35] = biological target: Cathepsin B (UniProt P07858); remark: listed apart in the source
Clostripain = Clostripain (UniProt P09870)
[36] = biological target: Plasma kallikrein (Homo sapiens) (UniProt P03952); remark: listed apart in the source
[37] = biological target: Factor XIIa (Homo sapiens) (UniProt P00748); remark: listed apart in the source
Plasmin (Homo sapiens) [38] = biological target: Plasmin (Homo sapiens) (UniProt P00747); remark: listed apart in the source
[39] = biological target: Chymotrypsin (Bos taurus) (UniProt P00766); remark: listed apart in the source
Cathepsin L [40] = biological target: Cathepsin L (UniProt P07711); remark: listed apart in the source
Target sequence in this assay (P07711 292-333): as above

Leukocyte elastase [41] = biological target: Leukocyte elastase (UniProt P08246); remark: listed apart in the source
[42] = biological target: Pancreatic elastase (Sus scrofa) (UniProt P00772)
Cathepsin L [43] = biological target: Cathepsin L (UniProt P07711); remark: listed apart in the source
Target sequence in this assay (P07711 114-288, chain 1 of 2): as the sequence (P07711 114-288, chain 1 of 2) above
Target sequence in this assay (P07711 292-333, chain 2 of 2): as the sequence (P07711 292-333) above

Factor Xa (Homo sapiens) [44] = biological target: Factor Xa (Homo sapiens) (UniProt P00742); remark: listed apart in the source
[45] = biological target: Factor XIIa (Homo sapiens) (UniProt P00748); remark: listed apart in the source
[46] = biological target: Kallikrein (Homo sapiens) (UniProt P03952)
[47] = biological target: Cathepsin G (Homo sapiens) (UniProt P08311); remark: listed apart in the source
Trypsin (Bos taurus) [48] = biological target: Trypsin (Bos taurus) (UniProt P00760); remark: listed apart in the source
Plasmin (Homo sapiens) [49] = biological target: Plasmin (Homo sapiens) (UniProt P00747); remark: listed apart in the source
[50] = biological target: Factor XIIa (Homo sapiens) (UniProt P00748); remark: listed apart in the source
[51] = biological target: Chymotrypsin (Bos taurus) (UniProt P00766); remark: listed apart in the source

LCTI-II, sequence (P25850 whole entry): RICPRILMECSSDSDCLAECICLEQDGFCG
Trypsin (Bos taurus), sequence (P00760 149-246): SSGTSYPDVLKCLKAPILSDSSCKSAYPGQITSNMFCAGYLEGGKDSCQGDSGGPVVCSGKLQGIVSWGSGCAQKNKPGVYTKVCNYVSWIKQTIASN
Factor XIIa (Homo sapiens), sequence (P00748 whole entry, looked up): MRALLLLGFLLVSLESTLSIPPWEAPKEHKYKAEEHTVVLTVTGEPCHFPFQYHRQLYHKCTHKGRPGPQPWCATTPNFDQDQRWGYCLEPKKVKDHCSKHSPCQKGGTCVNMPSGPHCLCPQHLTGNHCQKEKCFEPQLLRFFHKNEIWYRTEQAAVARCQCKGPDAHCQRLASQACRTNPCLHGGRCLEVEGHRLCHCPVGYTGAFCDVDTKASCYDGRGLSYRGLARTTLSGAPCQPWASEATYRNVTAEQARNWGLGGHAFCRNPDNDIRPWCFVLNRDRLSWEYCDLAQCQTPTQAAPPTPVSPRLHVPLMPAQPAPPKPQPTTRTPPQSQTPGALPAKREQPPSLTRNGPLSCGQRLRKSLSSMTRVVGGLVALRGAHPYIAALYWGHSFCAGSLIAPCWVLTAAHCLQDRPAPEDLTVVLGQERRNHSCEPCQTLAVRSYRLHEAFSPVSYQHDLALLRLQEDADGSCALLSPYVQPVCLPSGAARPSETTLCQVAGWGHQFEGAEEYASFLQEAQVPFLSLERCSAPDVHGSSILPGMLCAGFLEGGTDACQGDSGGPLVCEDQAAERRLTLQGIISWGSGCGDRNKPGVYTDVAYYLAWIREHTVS
Plasma kallikrein (Homo sapiens), sequence (P03952 391-638): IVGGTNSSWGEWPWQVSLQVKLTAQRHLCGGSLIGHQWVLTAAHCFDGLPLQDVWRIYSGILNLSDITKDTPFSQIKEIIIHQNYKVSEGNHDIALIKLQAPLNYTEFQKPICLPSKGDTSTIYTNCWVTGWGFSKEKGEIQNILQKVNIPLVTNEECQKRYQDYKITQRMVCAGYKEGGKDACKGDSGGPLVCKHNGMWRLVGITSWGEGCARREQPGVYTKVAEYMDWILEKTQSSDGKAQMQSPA
LLDTI-II, sequence (P26771 2-30): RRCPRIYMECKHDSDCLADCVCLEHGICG
ATSI, sequence (P80211 whole entry): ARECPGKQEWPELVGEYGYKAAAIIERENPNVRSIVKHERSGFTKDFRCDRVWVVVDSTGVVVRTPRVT
SKTI-31, sequence (P01070 25-205): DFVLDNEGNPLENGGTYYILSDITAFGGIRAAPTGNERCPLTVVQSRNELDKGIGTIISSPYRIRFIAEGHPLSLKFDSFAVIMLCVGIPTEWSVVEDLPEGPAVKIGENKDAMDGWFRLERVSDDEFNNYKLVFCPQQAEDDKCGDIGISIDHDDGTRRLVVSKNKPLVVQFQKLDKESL
Plasmin (Homo sapiens), sequence (P00747 581-810): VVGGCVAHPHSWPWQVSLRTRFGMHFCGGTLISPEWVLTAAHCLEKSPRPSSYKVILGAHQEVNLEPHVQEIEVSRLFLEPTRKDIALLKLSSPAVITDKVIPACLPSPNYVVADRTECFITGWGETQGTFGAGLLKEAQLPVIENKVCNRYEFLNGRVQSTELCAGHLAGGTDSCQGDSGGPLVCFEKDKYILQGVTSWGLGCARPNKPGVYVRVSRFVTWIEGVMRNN
Cruzipain inhibitor (BbCI), sequence (P83051 whole entry): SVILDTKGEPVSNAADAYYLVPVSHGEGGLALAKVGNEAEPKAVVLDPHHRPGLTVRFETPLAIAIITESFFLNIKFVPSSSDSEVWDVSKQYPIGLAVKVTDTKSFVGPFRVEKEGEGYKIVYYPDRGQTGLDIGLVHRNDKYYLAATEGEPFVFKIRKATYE
MCoTI-II, sequence (P82409 whole entry): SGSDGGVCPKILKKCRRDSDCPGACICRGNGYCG
EcTI, sequence (P86451 1-134): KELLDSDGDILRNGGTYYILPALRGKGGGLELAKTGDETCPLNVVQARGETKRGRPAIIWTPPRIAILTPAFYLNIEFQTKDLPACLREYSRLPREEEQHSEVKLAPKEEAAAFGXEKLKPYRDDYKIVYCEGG
EcTI, sequence (P86451 135-174): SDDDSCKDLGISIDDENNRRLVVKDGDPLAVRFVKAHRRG
Soybean BBI, sequence (P01055 40-110): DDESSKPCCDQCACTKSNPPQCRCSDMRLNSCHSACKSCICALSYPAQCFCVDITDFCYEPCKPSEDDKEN
Potato CPI, sequence (P01075 whole entry): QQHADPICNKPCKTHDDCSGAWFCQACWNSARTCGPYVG
Factor Xa (Homo sapiens), sequence (P00742 235-488): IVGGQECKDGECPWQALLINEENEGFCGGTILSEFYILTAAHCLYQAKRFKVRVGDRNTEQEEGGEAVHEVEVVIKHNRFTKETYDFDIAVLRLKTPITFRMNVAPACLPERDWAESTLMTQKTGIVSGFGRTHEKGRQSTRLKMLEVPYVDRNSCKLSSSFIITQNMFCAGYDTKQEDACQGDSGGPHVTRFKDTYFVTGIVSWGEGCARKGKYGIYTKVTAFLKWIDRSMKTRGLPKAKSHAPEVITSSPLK
Cathepsin G (Homo sapiens), sequence (P08311 21-243): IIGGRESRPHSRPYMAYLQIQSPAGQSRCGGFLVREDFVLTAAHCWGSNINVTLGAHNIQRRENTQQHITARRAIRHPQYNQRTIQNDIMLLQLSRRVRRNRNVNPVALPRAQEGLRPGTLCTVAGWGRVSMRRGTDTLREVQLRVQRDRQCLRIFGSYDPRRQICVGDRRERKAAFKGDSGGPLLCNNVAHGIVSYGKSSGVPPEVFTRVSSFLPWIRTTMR
Leukocyte elastase, sequence (P08246 30-267): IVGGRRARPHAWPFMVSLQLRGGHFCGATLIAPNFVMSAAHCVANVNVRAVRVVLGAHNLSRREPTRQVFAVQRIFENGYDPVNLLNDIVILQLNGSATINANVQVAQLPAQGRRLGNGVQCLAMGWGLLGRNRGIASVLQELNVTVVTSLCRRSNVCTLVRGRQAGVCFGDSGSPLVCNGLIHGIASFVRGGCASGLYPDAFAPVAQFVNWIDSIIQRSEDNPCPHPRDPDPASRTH
CMTI-I, sequence (P01074 whole entry): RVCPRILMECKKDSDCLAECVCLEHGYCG
CMTI-V, sequence (P19873 whole entry): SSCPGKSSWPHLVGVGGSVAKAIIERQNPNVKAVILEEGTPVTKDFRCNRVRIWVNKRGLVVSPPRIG
Oryzacystatin-II, sequence (P20907 whole entry): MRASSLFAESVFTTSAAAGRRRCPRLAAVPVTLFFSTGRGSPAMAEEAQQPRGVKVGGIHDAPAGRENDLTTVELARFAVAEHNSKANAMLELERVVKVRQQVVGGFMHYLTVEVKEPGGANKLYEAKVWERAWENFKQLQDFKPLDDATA
Enterolobium EcTI, sequence (P86451 1-134): as the sequence (P86451 1-134) above
Enterolobium EcTI, sequence (P86451 135-174): as the sequence (P86451 135-174) above
Mast cell chymase (Homo sapiens), sequence (P23946 22-247): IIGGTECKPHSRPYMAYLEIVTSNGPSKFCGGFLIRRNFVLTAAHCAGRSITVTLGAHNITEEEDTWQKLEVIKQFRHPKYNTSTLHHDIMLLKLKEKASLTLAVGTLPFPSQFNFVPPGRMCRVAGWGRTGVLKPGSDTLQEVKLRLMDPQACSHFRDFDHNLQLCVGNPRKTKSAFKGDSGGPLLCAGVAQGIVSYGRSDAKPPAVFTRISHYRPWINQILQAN
β-tryptase (Homo sapiens), sequence (Q15661 31-275): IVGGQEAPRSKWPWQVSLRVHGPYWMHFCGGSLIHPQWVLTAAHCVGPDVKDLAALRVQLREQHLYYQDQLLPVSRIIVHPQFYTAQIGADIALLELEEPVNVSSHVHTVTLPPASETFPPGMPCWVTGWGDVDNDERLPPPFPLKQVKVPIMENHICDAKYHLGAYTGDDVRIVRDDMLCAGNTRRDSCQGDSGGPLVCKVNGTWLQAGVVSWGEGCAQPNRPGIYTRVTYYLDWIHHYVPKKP
β-Trypsin (Bos taurus), sequence (P00760 149-246): as the sequence (P00760 149-246) above
VhTI, sequence (P85981 whole entry): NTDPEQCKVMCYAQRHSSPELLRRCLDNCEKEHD

Enterolobium EcTI (from UniProt P86451)
Ki [1]: 1.1 nM | Ki (Trypsin (Bos taurus) [2]): 0.8 nM

RATI (from UniProt P01087)
Ki (Trypsin (Bos taurus) [3]): 1.2 nM

EcTI (from UniProt P86451)
Ki [4]: 82 nM | Ki [5]: 6.1 nM | Ki (Plasmin (Homo sapiens) [6]): 9.4 nM | Ki [7]: 55 nM

CMTI-V (from UniProt P19873)
Ki (Trypsin (Bos taurus) [8]): 16 nM | Ki [9]: 41 nM

CMTI-I (from UniProt P01074)
Kd [10]: 41 nM | Kd (β-Trypsin (Bos taurus)): 13 nM

VhTI (from UniProt P85981)
Ki (Trypsin (Bos taurus) [11]): < 1 nM

Soybean BBI (from UniProt P01055)
Ki (Leukocyte elastase [12]): 2.3 nM | Ki [13]: 6400 nM | Ki [14]: 29 nM | Ki [15]: 0.5 nM | Ki (Duadenase (Bos taurus)): 0.4 nM | Ki (Trypsin (Bos taurus) [16]): 4 nM

LLDTI-II (from UniProt P26771)
Ki (Trypsin (Bos taurus) [17]): 0.096 nM | Ki (Factor Xa (Homo sapiens) [18]): 41000 nM | Ki [19]: 1400 nM | Ki [20]: 27000 nM

Oryzacystatin-II (from UniProt P20907)
Ki (Cathepsin H [21]): 25 nM | Ki (Cathepsin H [22]): 25 nM

Potato CPI (from UniProt P01075)
Ki [23]: 2 nM | Ki [24]: 4 nM

MCoTI-II (from UniProt P82409)
Ki [25]: 1.6 nM | Ki [26]: 750 nM | Ki [27]: 9 nM | Ki [28]: 600 nM | Ki (Trypsin (Bos taurus) [29]): 0.0023 nM | Ki (Plasmin (Homo sapiens) [30]): 28 nM

PCPI 8.3 (from UniProt P20347)
Ki (Cathepsin L [31]): 0.07 nM | Ki (Cathepsin L [32]): 0.07 nM | Ki (Dipeptidyl peptidase I): > 500 nM | Ki [33]: > 500 nM | Ki (Cathepsin B [34]): 320 nM | Ki (Cathepsin B [35]): 320 nM | Ki (Clostripain): > 500 nM

SKTI-31 (from UniProt P01070)
Ki [36]: 5.7 nM | Ki [37]: 1400 nM | Ki (Plasmin (Homo sapiens) [38]): 190 nM | Ki [39]: 70 nM

Cruzipain inhibitor (BbCI) (from UniProt P83051)
Ki (Cathepsin L [40]): 2.2 nM | Ki (Leukocyte elastase [41]): 5.3 nM | Ki [42]: 4 nM | Ki (Cathepsin L [43]): 2.2 nM

LCTI-II (from UniProt P25850)
Ki (Factor Xa (Homo sapiens) [44]): 780000 nM | Ki [45]: 75 nM | Ki [46]: 0.096 nM

ATSI (from UniProt P80211)
Ki [47]: 120 nM | Ki (Trypsin (Bos taurus) [48]): 0.34 nM | Ki (Plasmin (Homo sapiens) [49]): 38 nM | Ki [50]: 440 nM | Ki [51]: 0.41 nM
